Assay results published in paper PMC9976900.
Changes are numbered by the printed parent chain.

Key:
Unr CSD789 R976A = biological target: T1, Unr CSD789 R976A (Drosophila, UniProt B7Z0E2 756-990, R976A); assay: fluorescence polarization
T1 sequence: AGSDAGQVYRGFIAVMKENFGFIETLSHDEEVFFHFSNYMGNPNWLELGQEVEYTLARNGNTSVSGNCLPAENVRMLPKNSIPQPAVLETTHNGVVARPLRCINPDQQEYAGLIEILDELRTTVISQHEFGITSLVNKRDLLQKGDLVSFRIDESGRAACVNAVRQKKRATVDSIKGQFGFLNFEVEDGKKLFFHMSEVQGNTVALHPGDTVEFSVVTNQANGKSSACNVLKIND

Unr CSD789 wild type [1] = biological target: T2, Unr CSD789 wild type (Drosophila, UniProt B7Z0E2 756-990); assay: fluorescence polarization
T2 sequence: T1 sequence with A221R

Unr CSD789 N977A = biological target: T3, Unr CSD789 N977A (Drosophila, UniProt B7Z0E2 756-990, N977A); assay: fluorescence polarization
T3 sequence: T1 sequence with A221R, N222A

Unr CSD789 E786A = biological target: T4, Unr CSD789 E786A (Drosophila, UniProt B7Z0E2 756-990, E786A); assay: fluorescence polarization
T4 sequence: T1 sequence with E31A, A221R

[2] = biological target: T5, Unr CSD789 E786A/R856A/P860A (ERPmut) (Drosophila, UniProt B7Z0E2 756-990, E786A;R856A;P860A); assay: fluorescence polarization
T5 sequence: T1 sequence with E31A, R101A, P105A, A221R

Unr CSD789 K979A = biological target: T6, Unr CSD789 K979A (Drosophila, UniProt B7Z0E2 756-990, K979A); assay: fluorescence polarization
T6 sequence: T1 sequence with A221R, K224A

Unr CSD789 Q975A = biological target: T7, Unr CSD789 Q975A (Drosophila, UniProt B7Z0E2 756-990, Q975A); assay: fluorescence polarization
T7 sequence: T1 sequence with Q220A, A221R

Unr CSD789 R856A = biological target: T8, Unr CSD789 R856A (Drosophila, UniProt B7Z0E2 756-990, R856A); assay: fluorescence polarization
T8 sequence: T1 sequence with R101A, A221R

Unr CSD789 P860A = biological target: T9, Unr CSD789 P860A (Drosophila, UniProt B7Z0E2 756-990, P860A); assay: fluorescence polarization
T9 sequence: T1 sequence with P105A, A221R

Unr CSD789 Q868A = biological target: T10, Unr CSD789 Q868A (Drosophila, UniProt B7Z0E2 756-990, Q898A); assay: fluorescence polarization
T10 sequence: T1 sequence with Q143A, A221R

Unr CSD789 wild type [3] = biological target: T2, Unr CSD789 wild type; assay: ITC
Unr CSD789 wild type [4] = biological target: T2, Unr CSD789 wild type; assay: NMR titration
pAbp RRM3 = pAbp RRM3 (Drosophila, UniProt P21187 176-263); assay: NMR titration
pAbp RRM3, sequence (P21187 176-263): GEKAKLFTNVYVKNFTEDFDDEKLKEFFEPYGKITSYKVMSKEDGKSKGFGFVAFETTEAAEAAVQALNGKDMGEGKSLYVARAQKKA

AAAAAAAAAAAAAAA (ssRNA) [A15-mer, 3' labelled]
Kd (Unr CSD789 R976A): 161 ± 51.2 µM | Kd (Unr CSD789 wild type [1]): 21.1 ± 3.6 µM | Kd (Unr CSD789 N977A): 71.2 ± 12.5 µM | Kd (Unr CSD789 E786A): 50.1 ± 6.4 µM | Kd [2]: ~94.7 µM | Kd (Unr CSD789 K979A): 160 ± 57.6 µM | Kd (Unr CSD789 Q975A): 38.2 ± 8.7 µM | Kd (Unr CSD789 R856A): 72.4 ± 11 µM | Kd (Unr CSD789 P860A): 67.2 ± 7.9 µM | Kd (Unr CSD789 Q868A): 61 ± 12.1 µM

AAAAAAAAAAAAAAA (ssRNA) [A15-mer]
Kd (Unr CSD789 wild type [3]): 4.8 ± 0.8 µM | Kd (Unr CSD789 wild type [4]): 8 ± 1.5 µM

AAAAAAA (ssRNA) [A7-mer]
Kd (Unr CSD789 wild type [3]): 17.7 ± 5.2 µM

AAAAAAAAA (ssRNA) [A9-mer]
Kd (Unr CSD789 wild type [3]): 4.3 ± 1.3 µM

AAAAAAAA (ssRNA) [A8-mer]
Kd (Unr CSD789 wild type [3]): 4.4 ± 2.7 µM | binding result (pAbp RRM3): binds

AAAAA (ssRNA) [A5-mer]
binding result (pAbp RRM3): binds | Kd (Unr CSD789 wild type [4]): 127 ± 16.6 µM
